Assay results taken from publication PMC12670495.

Target: ANT4044-DOTA (human)
Assay: SPR; Biacore T200, single-cycle kinetics, 25 °C, HBS-EP+; antibody-DOTA captured on a Protein G chip (~50 RU); PSMA as analyte, three-point 2-fold dilution 12.5-50 nM, 40 uL/min; association 200 s, dissociation 1500 s; Langmuir 1:1 fit

ANT4044-DOTA (human), sequence (heavy, as listed by the source, chain 1 of 2): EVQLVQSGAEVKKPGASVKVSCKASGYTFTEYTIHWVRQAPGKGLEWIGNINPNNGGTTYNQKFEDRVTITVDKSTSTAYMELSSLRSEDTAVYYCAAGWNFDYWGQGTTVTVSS
ANT4044-DOTA (human), sequence (light, as listed by the source, chain 2 of 2): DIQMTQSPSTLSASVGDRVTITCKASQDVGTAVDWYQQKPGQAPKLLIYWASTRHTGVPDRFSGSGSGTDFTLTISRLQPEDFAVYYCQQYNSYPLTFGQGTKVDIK

Kd: 2.68 nM
koff: 0.000187 s⁻¹
kon: 69700 M⁻¹ s⁻¹
Substance: cynomolgus PSMA (natural protein)
